Data on 15 molecules can be found in patent US20260092121A1 (TALEM THERAPEUTICS, published 2026).

One test deals with T1, mouse TrkB-ECD-GST (mouse, UniProt P15209 32-429).
T1 construct: extracellular domain; in-house fusion, HEK293; also called mTrkB-ECD-GST; mTrkB (ELISA); not shown: glutathione S-transferase (GST) fusion part
The experiment in a line: ELISA. (In general: In an ELISA, binding on a coated surface is turned into a signal by an enzyme label.)

For test [1], the target named is T2, human TrkB-His (human, UniProt Q16620 32-430).
T2 construct: in-house fusion of the TrkB ECD with poly-His, HEK293; also called huTrkB-His; hTrkB-His; not shown: poly-His tag
The experiment in a line: BLI off-rate, mAb captured.

In a further test the target is human TrkA-His (human, UniProt P04629 33-417, limits assumed). The experiment in a line: ELISA.
Sequence of human TrkA-His (P04629 33-417 limits assumed): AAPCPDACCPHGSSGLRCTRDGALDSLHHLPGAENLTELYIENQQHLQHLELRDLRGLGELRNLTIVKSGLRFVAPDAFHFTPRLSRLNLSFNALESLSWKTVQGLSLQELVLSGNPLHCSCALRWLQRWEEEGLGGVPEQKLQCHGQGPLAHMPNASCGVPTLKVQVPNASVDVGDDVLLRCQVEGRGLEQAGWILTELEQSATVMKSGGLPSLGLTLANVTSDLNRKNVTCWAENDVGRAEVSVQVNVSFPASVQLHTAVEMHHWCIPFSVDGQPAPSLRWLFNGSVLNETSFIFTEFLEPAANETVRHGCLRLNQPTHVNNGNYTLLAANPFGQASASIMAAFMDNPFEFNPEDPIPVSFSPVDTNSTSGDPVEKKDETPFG
Another test addresses human TrkC-His (human, UniProt Q16288 32-429). The experiment in a line: ELISA.
Test [2] addresses TrkB in PathHunter eXpress TrkB Functional Assay cells (modified U2OS). The experiment in a line: cell-based or functional assay.
Test [3] concerns the target T2, human TrkB-His. The experiment in a line: ELISA.

Positions count from the first letter of the chain named. Names may count otherwise.

B1: anti-TrkB clone 2E02 (antibody, V domains shown)
VH: QVQLQQSGPGLVKPSQTLSVTCVISGDSVSSKSAAWHWIRQSPSRGLEWLGRTYYRSKWYSDYGESVKSRVVINADTSNNQISLQLSSVTPEDTAAYYCARGIGSLNFDIWGQGTMVTVSS
VL: QSVLTQPPSASGSPGQSVTISCTGTSGDVGGYNYVSWYQQHPGKAPKLILYEVTKRPSGVPDRFSGSKSGNTASLTVSGLQAEDEADYYCSSYGGPNNLVLFGGGTKVTVL
notes: full-length IgG
By koff is commonly meant the first-order rate constant of dissociation. Take B1: the binding result is “binds” with mouse TrkB-ECD-GST, “no binding (tested: up to 10 µg/mL)” in the test with human TrkA-His and “no binding (tested: up to 10 µg/mL)” with human TrkC-His. This molecule returned a koff in the test with human TrkB-His [1] of 0.0113 s⁻¹. In addition, the “TrkB activation (EC50)” value in test [2] came out at 0.12 µg/mL.

B2: anti-TrkB clone 1F01 (antibody, V domains shown)
VH: B1 VH with S15A, V20L, V23D
VL: QSVVTQPASVSGSPGQSITISCTGTSSDIGGYDYVSWYQQHPGKAPKLMIFDVSNRPSGVSNRFSGSKSGNTASLTISGLQADDEADYYCSSYRAGSTLNLLFGGGTKLTVL
notes: full-length IgG
For B2, the binding result is “binds” in the test with mouse TrkB-ECD-GST, “no binding (tested: up to 10 µg/mL)” with human TrkA-His and “no binding (tested: up to 10 µg/mL)” with human TrkC-His. In the test with human TrkB-His [1], this molecule had a koff of 0.011 s⁻¹. Also, the “TrkB activation (EC50)” value in test [2] worked out at 0.51 µg/mL.

B3: KiH.F5_TrkB × 8A05_CD3 (bispecific antibody)
scFv: not shown
VH: QVQLQQSGGGLVQSGGSLRLSCAASGFSFGSSAMSWVRQAPGRGLEWVSGISHSGSTTYYADSVKGRFTISRDNSKNTLYLQMNSLRVEDTAVYYCAKIGAYGYYFHYWGQGTLVTVSS
VL: NFMLTQPHSVSESPGKTVTISCTRSGGSIASNYVQWYQQRPGSSPTTVIYDDNQRPSGVPDRFSGSIDSSSNSASLTISGLKTEDEADYYCQSSDNINHVIFGGGTKLTVL
notes: scFv-knob-Fc (IgG1 T366W/S354C) + Fab-hole-Fc (T366S/L368A/Y407V/Y349C); also called F5-8A05; F5_8A05
Regarding B3, the binding result with human TrkB-His [3] was “binds”.

B4: KiH.F5_TrkB × 3G07_CD3 (bispecific antibody)
scFv: not shown
VH: B3 VH with S14P
VL: NFMLTQPHSLSESPGKTVTISCTRSSGSIASKYVQWYQQRPGSAPTTVIYDDKQRPSGVPDRFSGSFDSSSNSASLTISGLKTEDEADYYCQSFDSTNQAVVFGGGTKLTVL
notes: scFv-knob-Fc (IgG1 T366W/S354C) + Fab-hole-Fc (T366S/L368A/Y407V/Y349C); also called F5-3G07; F5_3G07
With B4, the binding result with human TrkB-His [3] is “binds”.

B5: KiH.3H11_TrkB × 8A05_CD3 (bispecific antibody)
scFv: QVQLQQSGPGLVKPSQTLSLTCAISGDSVSSNSAVWNWIRQSPSRGLEWLGRTYYRSKWYTDFAVSVKSRITINPDTSKNQFSLQLNSVTPEDTAVYYCARGRNGMDVWGQGTMVTVSTSSGGGGSGGGGSGGSALLPVLTQPPSASGTPGQRVTISCSGSSSNIGHKYVYWYQQLPGAAPKLLIYRNNQRPSGVPDRFSASKSGTSASLAISGLRSEDEADYYCATWDDSLNGVVFGGGTKVTVL
VH: B3 VH
VL: B3 VL
notes: scFv-knob-Fc (IgG1 T366W/S354C) + Fab-hole-Fc (T366S/L368A/Y407V/Y349C); also called 3H11-8A05
As to B5, the binding result with human TrkB-His [3] is given as “binds”.

B6: anti-TrkB clone 4G12 (antibody, V domains shown)
VH: EVQLVQSGAEVKKPGESLKISCKGSGYSFTSYWIGWVRQMPGKGLEWMGIIYPGDSDTRYSPSFQGQVTISADKSISTAYLQWSSLKASDTAMYYCARHDYGMDVWGQGTTVTVSS
VL: QSVLTQPPSVSVSPGQTASITCSGDKLGDKFASWYQQKPGQSPVLVIYQDNKRPSRVPERFSGSNSGNTATLTISETQAMDEADYYCQAWVNNTVVFGGGTKVTVL
notes: full-length IgG
Consider B6, for which the results for the binding result with mouse TrkB-ECD-GST, in the test with human TrkA-His and with human TrkC-His were “binds”, “no binding (tested: up to 10 µg/mL)” and “no binding (tested: up to 10 µg/mL)”, respectively. Further, in the test with human TrkB-His [1], the off-rate constant (koff) came to 0.00545 s⁻¹. Also, the “TrkB activation (EC50)” value in test [2] is 0.07 µg/mL.

B7: anti-TrkB clone 5A07 (antibody, V domains shown)
VH: B6 VH with E1Q, T111M
VL: LPVLTQPPSASGTPGQRVTISCSGSRSNVGGNTVSWYQQLPGSAPKLLIYTNNQRPSGVPDRFSGSKSGTSASLAISGLQSEDEADYYCAAWDDSLNGYVFGTGTQLTVL
notes: full-length IgG
As to B7, the binding result was “binds” with mouse TrkB-ECD-GST, “no binding (tested: up to 10 µg/mL)” with human TrkA-His and “no binding (tested: up to 10 µg/mL)” with human TrkC-His. The koff with human TrkB-His [1] amounted to 0.00544 s⁻¹. In addition, the “TrkB activation (EC50)” value in test [2] worked out at 0.13 µg/mL.

B8: anti-TrkB clone 3C12 (antibody, V domains shown)
VH: QVQLVQSGAEVKKPGESLKISCKGSGYSFTSYWIGWVRQMPGKGLEWMGIIYPGDSDTRYSPSFQGQVTISADKSISTAYLQWSSLKASDTAMYYCTRSSFNDHWGQGTLVTVSS
VL: QPVLTQPPSVSVSPGQTASITCSGDKLGNKFVSWFQQKPGQSPVLVIYQDTKRPSGIPERFSGSNSGSTATLTITGTQAMDDADYYCQAWNTNTALFGGGTKLTVL
notes: full-length IgG
For B8, the binding result is reported as “binds” with mouse TrkB-ECD-GST, “no binding (tested: up to 10 µg/mL)” in the test with human TrkA-His and “no binding (tested: up to 10 µg/mL)” in the test with human TrkC-His. Also, the dissociation rate constant (koff) with human TrkB-His [1] came out at 0.000586 s⁻¹. Also, the “TrkB activation (EC50)” value in test [2] came to 0.018 µg/mL.

B9: anti-TrkB clone 6E08 (antibody, V domains shown)
VH: QVQLVQSGGGVVQPGRSLRLSCAASGFTFSSYAMHWVRQAPGKGLEWVAVISYDGSNKYYADSVKGRFTISRDNSKNTLYLQMNSLRAEDTAVYYCARAFRRYDAFDIWGQGTLVTVSS
VL: DIQMTQTPLSLSVTLGQPASISCRSSQGLVYSDGNTYLNWFQQRPGQSPRRLIYKVSNRDSGVPDRFSGSGSGTDFTLKISRVEAEDVGVYYCMQGTHWPPAFGQGTKVEIK
notes: full-length IgG
For the molecule B9, the values for the binding result in the test with mouse TrkB-ECD-GST, with human TrkA-His and with human TrkC-His were “binds”, “no binding (tested: up to 10 µg/mL)” and “no binding (tested: up to 10 µg/mL)”, respectively. In addition, the off-rate constant (koff) with human TrkB-His [1] turned out to be 0.0064 s⁻¹. Also, the “TrkB activation (EC50)” value in test [2] is 4.2 µg/mL.

B10: anti-TrkB clone 6B11 (antibody, V domains shown)
VH: QVQLQQSGAGLVKASQTLALTCAISGDSVSSNSAAWNWIRQSPSRGLEWLGRTYYRSKWYNDYAVSVKSRITINPDTSTNQFSLQLNSVTPEDTAVYYCTRGTGDKRAFDYWGQGTLVTVSS
VL: QSVLTQPPSASGTPGQRVTISCSGSSSNIGSYFVSWYQQLPGTAPKLLIYRNDKRPSGVPERFSGSKSGTSASLAISGLQSEDEADYYCAAWDDSLSGRIFGGGTKLTVL
notes: full-length IgG
For the molecule B10, the binding result with mouse TrkB-ECD-GST is on record as “binds”; with human TrkA-His it was “no binding (tested: up to 10 µg/mL)”; with human TrkC-His, “no binding (tested: up to 10 µg/mL)”. The koff in the test with human TrkB-His [1] was determined as 0.00687 s⁻¹. In addition, the “TrkB activation (EC50)” value in test [2] amounted to 0.11 µg/mL.

B11: KiH.F5_TrkB × 1A09_CD3 (bispecific antibody)
scFv: not shown
VH: EVQLVQSGGGLVKPGGSLRLSCAASGFTFSSYSMNWVRQAPGKGLEWVSSISSSSSYIYYADSVKGRFTISRDNSKNTLYLQMNSLRAEDTAVYYCARVKDYDSSLDYWGQGTLVTVSS
VL: SYELMQPPSVSVSPGQTARITCSGFKLGDKYVSWYQQKPGQSPVLVIYQDSKRPSGIPERFSGSNSGNTATLTISGTQAMDEADYYCQAWDSSTVVFGGGTKLTVL
notes: scFv-knob-Fc (IgG1 T366W/S354C) + Fab-hole-Fc (T366S/L368A/Y407V/Y349C); also called F5×1A09; F5-1A09
As for B11, the binding result in the test with human TrkB-His [3] is given as “binds”.

B12: KiH.3H11_TrkB × 1A09_CD3 (bispecific antibody)
scFv: B5 scFv
VH: B11 VH
VL: B11 VL
notes: scFv-knob-Fc (IgG1 T366W/S354C) + Fab-hole-Fc (T366S/L368A/Y407V/Y349C); also called 3H11-1A09
For the molecule B12, in the test with human TrkB-His [3], the binding result is given as “binds”.

B13: anti-TrkB clone 1E02 (antibody, V domains shown)
VH: QVQLLQSAAEVKKPGESLKISCKGSGYRFTSYWIGWVRQMPGKGLEWVGIIYPDDSDTRYSPSFQGQVTISADTSISTTYLQWSSLKASDTAIYYCASGEVAFDVWGQGTTVTVSS
VL: QSVLTQPPSLSVSPRQTASITCSGDKLGDKFVSWYQQKPGQSPVLVIYQDTKRPSGIPERFSGSNSGNTATLTISGTQAMDEADYYCQAWDSSTGVFGGGTKLTVL
notes: full-length IgG
With B13, the results for the binding result in the test with mouse TrkB-ECD-GST, with human TrkA-His and in the test with human TrkC-His were “binds”, “no binding (tested: up to 10 µg/mL)” and “no binding (tested: up to 10 µg/mL)”, respectively. Also, in the test with human TrkB-His [1], the koff was 0.00318 s⁻¹. In addition, in test [2], the “TrkB activation (EC50)” value turned out to be 0.047 µg/mL.

B14: anti-TrkB clone 5C01 (antibody, V domains shown)
VH: QMQLVQSGAEVKKPGESLKISCKGSGYSFTSYWIGWVRQMPGKGLEWLGIIYPGDSDTRYSPSFQGQVTISADKSISTAYLQWSSLKASDTAMYYCARLGQGSGPFDYWGQGTLVTVSS
VL: QSVVTQPPSVSGTPGQRVSISCSGSSSNIGSHSVTWFQQLPGTAPKLLIYGNSQRPSGVPDRFSGSKSGTSASLAISGLQSEDEADYYCASWDDSLNGYVFGTGTKLTVL
notes: full-length IgG
As for B14, the binding result was “binds” in the test with mouse TrkB-ECD-GST, “no binding (tested: up to 10 µg/mL)” with human TrkA-His and “no binding (tested: up to 10 µg/mL)” in the test with human TrkC-His. Moreover, the koff with human TrkB-His [1] turned out to be 0.00491 s⁻¹. Further, in test [2], the “TrkB activation (EC50)” value was found to be 0.08 µg/mL.

B15: anti-TrkB clone 2C07 (antibody, V domains shown)
VH: QVQLQQSGGGVVQPGRSLRLSCAASGFTFSNYAMHWVRQAPGKGLEWVAVISYDGSNEYYADSVKGRFTISRDNSRNTLDLQMNSLRAEDTAVYYCARGTNYGMDVWGQGTMVTVSS
VL: LSELTQDPAVSVALGQTVRITCQGDSLRSYYASWYQQKPGQAPVLVIYGKNNRPSGIPDRFSGSDSGKTASLTITGAQAEDEADYYCQSRDTTGNYLLFGGGTKLTVL
notes: full-length IgG
With B15, the binding result is listed as “binds” with mouse TrkB-ECD-GST, “no binding (tested: up to 10 µg/mL)” in the test with human TrkA-His and “no binding (tested: up to 10 µg/mL)” in the test with human TrkC-His. In the test with human TrkB-His [1], the dissociation rate constant (koff) was found to be 0.00399 s⁻¹. Besides, the “TrkB activation (EC50)” value in test [2] was determined as 0.036 µg/mL.
